± gives the uncertainty stated by the source.
B1: POU domain, class 3, transcription factor 4, residues 280 to 335; numbered along this chain, P49335 (parent)
chain: KKRTSIEVSVKGVLETHFLKCPKPAAQEISSLADSLQLEKEVVRVWFCNRRQKEKR

Variants of: B1
Experiment: abundance fitness (aPCA) (normalised: wild type 0, dead -1); higher = more abundant; growth selection in yeast, the domain comes from the species named
Settings: Homo sapiens

| Variant | abundance fitness |
| --- | --- |
| KKRTSIEVSVKGVLETHFLKCPKPAAQEISSLADSLQLEKEVVRVWFCNIRQKEKR [R50I] | -0.93 ± 0.28 |
| KKRTSIEVSVKGVLETHFLKCPKPAAQEISSLADSLQLEKEVVRVWFCNGRQKEKR [R50G] | -0.778 ± 0.14 |
| KKRTSIEVSVKGVLETHFLKCPKPAAQEISSLADSLQLEKEVVRVWFCNTRQKEKR [R50T] | -0.693 ± 0.25 |
| KKRTSIEVSVKGVKETHFLKCPKPAAQEISSLADSLQLEKEVVRVWFCNRRQKEKR [L14K] | -0.655 ± 0.22 |
| KKRTSIEVSVKGVIETHFLKCPKPAAQEISSLADSLQLEKEVVRVWFCNRRQKEKR [L14I] | -0.607 ± 0.17 |
| KKRTSIEVSVKGVRETHFLKCPKPAAQEISSLADSLQLEKEVVRVWFCNRRQKEKR [L14R] | -0.792 ± 0.1 |
| KKRTSIEVSKKGVLETHFLKCPKPAAQEISSLADSLQLEKEVVRVWFCNRRQKEKR [V10K] | -0.12 ± 0.36 |
| KKRTSIEVSVKGVLETHFPKCPKPAAQEISSLADSLQLEKEVVRVWFCNRRQKEKR [L19P] | -0.774 ± 0.26 |
| KKRTSIEVSVKGVLETHFKKCPKPAAQEISSLADSLQLEKEVVRVWFCNRRQKEKR [L19K] | -0.461 ± 0.23 |
| KKRTSIEVSVKGVLETHFTKCPKPAAQEISSLADSLQLEKEVVRVWFCNRRQKEKR [L19T] | -0.019 ± 0.19 |
| KKRTSIEVSVKGVLETHFGKCPKPAAQEISSLADSLQLEKEVVRVWFCNRRQKEKR [L19G] | -0.504 ± 0.12 |
| KKRTSIEVSVKGVLETHFNKCPKPAAQEISSLADSLQLEKEVVRVWFCNRRQKEKR [L19N] | -0.343 ± 0.24 |
| KKRTSIEVSVKGVLETHFLKCPKPAAQEISSLADSLQLNKEVVRVWFCNRRQKEKR [E39N] | -0.134 ± 0.25 |
| KKRTSIEVSVKGVLETHFLKCPKPAAQEISSLADSLQLEKEVDRVWFCNRRQKEKR [V43D] | -0.614 ± 0.28 |
| KKRTSIEVSVKGVLETHFLKCPKPAAQEISSLADSLQLEKEVKRVWFCNRRQKEKR [V43K] | -1.01 ± 0.36 |
| KKRTSIEVSVKGVLETHFLKCPKPAVQEISSLADSLQLEKEVVRVWFCNRRQKEKR [A26V] | -0.254 ± 0.13 |
| KKRTSIEVSVKGVLETHFLKCPKPAYQEISSLADSLQLEKEVVRVWFCNRRQKEKR [A26Y] | -0.254 ± 0.23 |
| KKRTSIEVSVKGVLEAHFLKCPKPAAQEISSLADSLQLEKEVVRVWFCNRRQKEKR [T16A] | 0.197 ± 0.14 |
| KKRTSIEVSVKGVLEGHFLKCPKPAAQEISSLADSLQLEKEVVRVWFCNRRQKEKR [T16G] | 0.041 ± 0.13 |
| KKRTSIEVSVKGVLEDHFLKCPKPAAQEISSLADSLQLEKEVVRVWFCNRRQKEKR [T16D] | 0.157 ± 0.26 |
| KKRTSIEVSVKGVLEPHFLKCPKPAAQEISSLADSLQLEKEVVRVWFCNRRQKEKR [T16P] | -0.839 ± 0.26 |
| KKRTSIEVSVKGVLEEHFLKCPKPAAQEISSLADSLQLEKEVVRVWFCNRRQKEKR [T16E] | 0.368 ± 0.16 |
| KKRTSIEVSVKGVLETHFLKCPKPAAQEISSLADSLQLEKEVVRVWFCGRRQKEKR [N49G] | -0.711 ± 0.17 |
| KKRTSIEVSVKGVLETHFLKCPKPAAQEISSLADSLQLEKEVVRVWFCNRRQKQKR [E54Q] | -0.259 ± 0.24 |

| Variant | abundance fitness |
| --- | --- |
| KKRTSIEVSVKGVLETHFLKCPKPAAQEISSLADSLQLEKEVVRVWFCNRRQKMKR [E54M] | -0.819 ± 0.3 |
| KKRTSIEVSVKGVLETHFLKCPKPAAQEINSLADSLQLEKEVVRVWFCNRRQKEKR [S30N] | -0.196 ± 0.2 |
| KKRTSIEVSVKGVLETHFLKCPKPAAQEIHSLADSLQLEKEVVRVWFCNRRQKEKR [S30H] | -0.706 ± 0.24 |
| KKRTSIEVSVKGVLETHFLKCPFPAAQEISSLADSLQLEKEVVRVWFCNRRQKEKR [K23F] | 0.137 ± 0.17 |
| KKRTSIEVSVKGVLETHFLKCPDPAAQEISSLADSLQLEKEVVRVWFCNRRQKEKR [K23D] | 0.263 ± 0.15 |
| KKRTSIEVSVKGVLETHFLKCPSPAAQEISSLADSLQLEKEVVRVWFCNRRQKEKR [K23S] | 0.17 ± 0.11 |
| KKRTSIEVSVKGHLETHFLKCPKPAAQEISSLADSLQLEKEVVRVWFCNRRQKEKR [V13H] | -0.407 ± 0.47 |
| KKRTSIEVSVKGILETHFLKCPKPAAQEISSLADSLQLEKEVVRVWFCNRRQKEKR [V13I] | -0.235 ± 0.32 |
| KKRTSIEVSVKGVLETTFLKCPKPAAQEISSLADSLQLEKEVVRVWFCNRRQKEKR [H17T] | -0.464 ± 0.23 |
| KKRTSIEVSVKGVLETDFLKCPKPAAQEISSLADSLQLEKEVVRVWFCNRRQKEKR [H17D] | -1 ± 0.34 |
| KKRTSIEVSVKGVLETHFLKCPKPAAQEISSLADSLQLEKEVVMVWFCNRRQKEKR [R44M] | -0.539 ± 0.22 |
| KKRTSIEVSVKGVLETHFLKCPKPAAQEISSLADSLQLEKEVVWVWFCNRRQKEKR [R44W] | -0.68 ± 0.2 |
| KKRTSIEVSVKGVLETHFLKCPKPAAQEISSLADSLQLEKEVVQVWFCNRRQKEKR [R44Q] | -0.074 ± 0.16 |
| KKRTSIEVSVKGVLETHFLKCPKPAAQEISSLANSLQLEKEVVRVWFCNRRQKEKR [D34N] | -0.384 ± 0.21 |
| KKRTSIEVSVKGVLETHFLKCPKPAAQKISSLADSLQLEKEVVRVWFCNRRQKEKR [E28K] | -0.713 ± 0.29 |
| KKRTSIEVSVKGVLETHFLKCPKPAAQQISSLADSLQLEKEVVRVWFCNRRQKEKR [E28Q] | -0.432 ± 0.19 |
| KKRTSIEVSVKGVLETHFLKCPKPAAQCISSLADSLQLEKEVVRVWFCNRRQKEKR [E28C] | -0.569 ± 0.19 |
| KKRTSIEVSVKGVLETHFLKCPKPAAQHISSLADSLQLEKEVVRVWFCNRRQKEKR [E28H] | -0.63 ± 0.24 |
| KKRESIEVSVKGVLETHFLKCPKPAAQEISSLADSLQLEKEVVRVWFCNRRQKEKR [T4E] | 0.034 ± 0.24 |
| KKRWSIEVSVKGVLETHFLKCPKPAAQEISSLADSLQLEKEVVRVWFCNRRQKEKR [T4W] | -0.486 ± 0.17 |
| KKRASIEVSVKGVLETHFLKCPKPAAQEISSLADSLQLEKEVVRVWFCNRRQKEKR [T4A] | -0.145 ± 0.16 |
| KKRTSIGVSVKGVLETHFLKCPKPAAQEISSLADSLQLEKEVVRVWFCNRRQKEKR [E7G] | 0.381 ± 0.12 |
| KKRTSIRVSVKGVLETHFLKCPKPAAQEISSLADSLQLEKEVVRVWFCNRRQKEKR [E7R] | -0.093 ± 0.095 |
